B1: Transmembrane protein 79 (Homo sapiens), Q9BSE2 (parent)
chain: MTEQETLALLEVKRSDSPEKSSPQALVPNGRQPEGEGGAESPGAESLRVGSSAGSPTAIEGAEDGLDSTVSEAATLPWGTGPQPSAPFPDPPGWRDIEPEPPESEPLTKLEELPEDDANLLPEKAARAFVPIDLQCIERQPQEDLIVRCEAGEGECRTFMPPRVTHPDPTERKWAEAVVRPPGCSCGGCGSCGDREWLRAVASVGAALILFPCLLYGAYAFLPFDVPRLPTMSSRLIYTLRCGVFATFPIVLGILVYGLSLLCFSALRPFGEPRREVEIHRRYVAQSVQLFILYFFNLAVLSTYLPQDTLKLLPLLTGLFAVSRLIYWLTFAVGRSFRGFGYGLTFLPLLSMLMWNLYYMFVVEPERMLTATESRLDYPDHARSASDYRPRPWG
partner: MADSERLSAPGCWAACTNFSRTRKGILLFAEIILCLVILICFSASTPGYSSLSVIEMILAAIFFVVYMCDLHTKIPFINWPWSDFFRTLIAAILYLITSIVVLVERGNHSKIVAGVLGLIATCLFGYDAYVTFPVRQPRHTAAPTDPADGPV
B2: Protein BANP (Homo sapiens), Q8N9N5-2 (parent)
chain: MMSEHDLADVVQIAVEDLSPDHPVVLENHVVTDEDEPALKRQRLEINCQDPSIKSFLYSINQTICLRLDSIEAKLQALEATCKSLEEKLDLVTNKQHSPIQVPMVAGSPLGATQTCNKVRCAVPGRRQNTIVVKVPGQEDSHHEDGESGSEASDSVSSCGQAGSQSIGSNVTLITLNSEEDYPNGTWLGDENNPEMRVRCAIIPSDMLHISTNCRTAEKMALTLLDYLFHREVQAVSNLSGQGKHGKKQLDPLTIYGIRCHLFYKFGITESDWYRIKQSIDSKCRTAWRRKQRGQSLAVKSFSRRTPNSSSYCPSEPMMSTPPPASELPQPQPQPQALHYALANAQQVQIHQIGEDGQVQVIPQGHLHIAQVPQGEQVQITQDSEGNLQIHHVGQDGQVLQGAQLIAVASSDPAAAGVDGSPLQGSDIQVQYVQLAPVSDHTAGAQTAEALQPTLQPEMQLEHGAIQIQ
partner: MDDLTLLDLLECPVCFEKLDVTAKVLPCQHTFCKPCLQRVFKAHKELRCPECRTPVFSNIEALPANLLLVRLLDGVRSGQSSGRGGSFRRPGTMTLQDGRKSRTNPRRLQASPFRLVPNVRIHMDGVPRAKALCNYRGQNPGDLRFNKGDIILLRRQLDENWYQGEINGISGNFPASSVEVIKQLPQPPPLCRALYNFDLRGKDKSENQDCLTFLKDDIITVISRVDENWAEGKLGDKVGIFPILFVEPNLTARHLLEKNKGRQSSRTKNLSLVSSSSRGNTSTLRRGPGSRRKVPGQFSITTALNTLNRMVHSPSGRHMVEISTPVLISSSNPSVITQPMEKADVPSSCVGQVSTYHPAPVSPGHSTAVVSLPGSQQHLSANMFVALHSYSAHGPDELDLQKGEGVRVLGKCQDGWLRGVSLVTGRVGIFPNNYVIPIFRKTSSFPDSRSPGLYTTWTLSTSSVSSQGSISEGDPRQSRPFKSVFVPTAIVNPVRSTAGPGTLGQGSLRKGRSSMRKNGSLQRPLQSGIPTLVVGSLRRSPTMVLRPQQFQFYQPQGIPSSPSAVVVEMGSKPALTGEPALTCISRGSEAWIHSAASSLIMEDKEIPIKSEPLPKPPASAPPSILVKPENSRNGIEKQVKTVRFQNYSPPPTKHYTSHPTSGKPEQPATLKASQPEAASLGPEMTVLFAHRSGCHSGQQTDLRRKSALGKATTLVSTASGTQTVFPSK
B3: Glutathione S-transferase omega-2 (Homo sapiens), Q9H4Y5 (parent)
chain: MSGDATRTLGKGSQPPGPVPEGLIRIYSMRFCPYSHRTRLVLKAKDIRHEVVNINLRNKPEWYYTKHPFGHIPVLETSQCQLIYESVIACEYLDDAYPGRKLFPYDPYERARQKMLLELFCKVPHLTKECLVALRCGRECTNLKAALRQEFSNLEEILEYQNTTFFGGTCISMIDYLLWPWFERLDVYGILDCVSHTPALRLWISAMKWDPTVCALLMDKSIFQGFLNLYFQNNPNAFDFGLC
B4: Phosphatidylinositol-3-phosphate phosphatase MTMR7 (Homo sapiens), Q9Y216 (parent)
chain: MEHIRTPKVENVRLVDRVSPKKAALGTLYLTATHVIFVENSPDPRKETWILHSQISTIEKQATTATGCPLLIRCKNFQIIQLIIPQERDCHDVYISLIRLARPVKYEELYCFSFNPMLDKEEREQGWVLIDLSEEYTRMGLPNHYWQLSDVNRDYRVCDSYPTELYVPKSATAHIIVGSSKFRSRRRFPVLSYYYKDNHASICRSSQPLSGFSARCLEDEQMLQAIRKANPGSDFVYVVDTRPKLNAMANRAAGKGYENEDNYSNIKFQFIGIENIHVMRNSLQKMLEVCELKSPSMSDFLWGLENSGWLRHIKAIMDAGIFIAKAVSEEGASVLVHCSDGWDRTAQVCSVASLLLDPHYRTLKGFMVLIEKDWISFGHKFNHRYGNLDGDPKEISPVIDQFIECVWQLMEQFPCAFEFNERFLIHIQHHIYSCQFGNFLCNSQKERRELKIQERTYSLWAHLWKNRADYLNPLFRADHSQTQGTLHLPTTPCNFMYKFWSGMYNRFEKGMQPRQSVTDYLMAVKEETQQLEEELEALEERLEKIQKVQLNCTKVKSKQSEPSKHSGFSTSDNSIANTPQDYSGNMKSFPSRSPSQGDEDSALILTQDNLKSSDPDLSANSDQESGVEDLSCRSPSGGEHAPSEDSGKDRDSDEAVFLTA
partner: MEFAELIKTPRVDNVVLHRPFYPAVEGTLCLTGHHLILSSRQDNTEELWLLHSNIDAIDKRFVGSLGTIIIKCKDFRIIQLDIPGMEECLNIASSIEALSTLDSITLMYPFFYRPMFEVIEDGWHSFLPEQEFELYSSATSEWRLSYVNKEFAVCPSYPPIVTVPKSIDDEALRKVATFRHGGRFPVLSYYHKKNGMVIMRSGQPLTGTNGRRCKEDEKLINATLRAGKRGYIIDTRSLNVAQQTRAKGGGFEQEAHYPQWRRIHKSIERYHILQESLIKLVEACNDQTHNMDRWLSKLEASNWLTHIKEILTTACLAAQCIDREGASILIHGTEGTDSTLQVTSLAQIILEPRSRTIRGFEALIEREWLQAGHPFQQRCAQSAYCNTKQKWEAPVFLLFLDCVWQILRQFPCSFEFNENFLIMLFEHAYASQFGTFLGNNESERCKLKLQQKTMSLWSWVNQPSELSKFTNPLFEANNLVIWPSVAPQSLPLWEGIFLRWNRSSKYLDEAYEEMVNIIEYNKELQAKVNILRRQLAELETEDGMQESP
B5: WD repeat domain-containing protein 83 (Homo sapiens), Q9BRX9 (parent)
chain: MAFPEPKPRPPELPQKRLKTLDCGQGAVRAVRFNVDGNYCLTCGSDKTLKLWNPLRGTLLRTYSGHGYEVLDAAGSFDNSSLCSGGGDKAVVLWDVASGQVVRKFRGHAGKVNTVQFNEEATVILSGSIDSSIRCWDCRSRRPEPVQTLDEARDGVSSVKVSDHEILAGSVDGRVRRYDLRMGQLFSDYVGSPITCTCFSRDGQCTLVSSLDSTLRLLDKDTGELLGEYKGHKNQEYKLDCCLSERDTHVVSCSEDGKVFFWDLVEGALALALPVGSGVVQSLAYHPTEPCLLTAMGGSVQCWREEAYEAEDGAG
B6: G-patch domain and KOW motifs-containing protein (Homo sapiens), Q92917 (parent)
chain: MADSKEGVLPLTAASTAPISFGFTRTSARRRLADSGDGAGPSPEEKDFLKTVEGRELQSVKPQEAPKELVIPLIQNGHRRQPPARPPGPSTDTGALADGVVSQAVKELIAESKKSLEERENAGVDPTLAIPMIQKGCTPSGEGADSEPRAETVPEEANYEAVPVEAYGLAMLRGMGWKPGEGIGRTFNQVVKPRVNSLRPKGLGLGANLTEAQALTPTGPSRMPRPDEEQEKDKEDQPQGLVPGGAVVVLSGPHRGLYGKVEGLDPDNVRAMVRLAVGSRVVTVSEYYLRPVSQQEFDKNTLDLRQQNGTASSRKTLWNQELYIQQDNSERKRKHLPDRQDGPAAKSEKAAPRSQHWLHRDLRVRFVDNMYKGGQYYNTKMIIEDVLSPDTCVCRTDEGRVLEGLREDMLETLVPKAEGDRVMVVLGPQTGRVGHLLSRDRARSRALVQLPRENQVVELHYDAICQYMGPSDTDDD
partner: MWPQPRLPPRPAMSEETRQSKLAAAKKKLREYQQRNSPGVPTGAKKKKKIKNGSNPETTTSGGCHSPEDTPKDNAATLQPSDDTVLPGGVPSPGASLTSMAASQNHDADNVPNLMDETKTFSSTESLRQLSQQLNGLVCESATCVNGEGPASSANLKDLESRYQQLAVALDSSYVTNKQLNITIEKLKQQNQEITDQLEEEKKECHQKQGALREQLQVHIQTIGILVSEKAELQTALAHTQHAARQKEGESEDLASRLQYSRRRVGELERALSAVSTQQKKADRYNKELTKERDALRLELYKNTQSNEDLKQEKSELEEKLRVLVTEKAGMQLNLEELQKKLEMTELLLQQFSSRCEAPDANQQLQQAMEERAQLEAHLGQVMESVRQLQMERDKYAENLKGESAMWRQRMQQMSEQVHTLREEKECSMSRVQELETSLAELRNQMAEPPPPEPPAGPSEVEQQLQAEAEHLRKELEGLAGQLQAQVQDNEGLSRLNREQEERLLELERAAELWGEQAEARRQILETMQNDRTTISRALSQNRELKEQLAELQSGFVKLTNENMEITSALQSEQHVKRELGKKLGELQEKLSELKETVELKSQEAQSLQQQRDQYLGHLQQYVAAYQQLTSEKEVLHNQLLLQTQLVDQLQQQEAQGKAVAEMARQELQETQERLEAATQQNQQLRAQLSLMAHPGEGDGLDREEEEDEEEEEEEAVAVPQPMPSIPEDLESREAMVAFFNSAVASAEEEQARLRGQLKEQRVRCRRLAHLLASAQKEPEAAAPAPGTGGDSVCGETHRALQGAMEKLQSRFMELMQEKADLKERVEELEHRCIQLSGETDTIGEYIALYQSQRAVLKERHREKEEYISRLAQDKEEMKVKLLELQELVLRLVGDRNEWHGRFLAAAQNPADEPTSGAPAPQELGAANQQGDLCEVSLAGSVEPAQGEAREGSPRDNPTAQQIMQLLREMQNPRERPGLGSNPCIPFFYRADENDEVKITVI
B7: Caspase recruitment domain-containing protein 9 (Homo sapiens), Q9H257 (parent)
chain: MSDYENDDECWSVLEGFRVTLTSVIDPSRITPYLRQCKVLNPDDEEQVLSDPNLVIRKRKVGVLLDILQRTGHKGYVAFLESLELYYPQLYKKVTGKEPARVFSMIIDASGESGLTQLLMTEVMKLQKKVQDLTALLSSKDDFIKELRVKDSLLRKHQERVQRLKEECEAGSRELKRCKEENYDLAMRLAHQSEEKGAALMRNRDLQLEIDQLKHSLMKAEDDCKVERKHTLKLRHAMEQRPSQELLWELQQEKALLQARVQELEASVQEGKLDRSSPYIQVLEEDWRQALRDHQEQANTIFSLRKDLRQGEARRLRCMEEKEMFELQCLALRKDSKMYKDRIEAILLQMEEVAIERDQAIATREELHAQHARGLQEKDALRKQVRELGEKADELQLQVFQCEAQLLAVEGRLRRQQLETLVLSSDLEDGSPRRSQELSLPQDLEDTQLSDKGCLAGGGSPKQPFAALHQEQVLRNPHDAGLSSGEPPEKERRRLKESFENYRRKRALRKMQKGWRQGEEDRENTTGSDNTDTEGS
partner: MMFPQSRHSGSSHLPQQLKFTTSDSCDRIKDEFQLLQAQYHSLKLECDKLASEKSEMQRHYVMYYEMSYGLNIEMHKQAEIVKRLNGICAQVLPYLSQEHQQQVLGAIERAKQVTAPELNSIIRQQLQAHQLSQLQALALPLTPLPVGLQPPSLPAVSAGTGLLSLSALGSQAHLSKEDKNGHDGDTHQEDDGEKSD
B8: N-acetyltransferase 8 (Homo sapiens), Q9UHE5 (parent)
chain: MAPCHIRKYQESDRQWVVGLLSRGMAEHAPATFRQLLKLPRTLILLLGGPLALLLVSGSWLLALVFSISLFPALWFLAKKPWTEYVDMTLCTDMSDITKSYLSERGSCFWVAESEEKVVGMVGALPVDDPTLREKRLQLFHLFVDSEHRRQGIAKALVRTVLQFARDQGYSEVILDTGTIQLSAMALYQSMGFKKTGQSFFCVWARLVALHTVHFIYHLPSSKVGSL
partner: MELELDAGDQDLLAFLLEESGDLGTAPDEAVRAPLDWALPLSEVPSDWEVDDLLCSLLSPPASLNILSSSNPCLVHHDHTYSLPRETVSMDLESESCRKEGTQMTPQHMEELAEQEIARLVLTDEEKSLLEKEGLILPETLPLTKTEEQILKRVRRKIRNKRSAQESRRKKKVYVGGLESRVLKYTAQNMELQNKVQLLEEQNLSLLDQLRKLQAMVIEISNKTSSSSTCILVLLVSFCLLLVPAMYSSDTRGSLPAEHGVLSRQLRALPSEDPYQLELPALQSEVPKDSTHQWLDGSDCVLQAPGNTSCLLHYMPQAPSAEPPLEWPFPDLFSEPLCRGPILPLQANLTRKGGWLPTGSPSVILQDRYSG

Variants of: B1
Conditions: with plp2_human PLP2, Q04941

Row | effect of a mutation on the interaction | Variant
1 | with no effect | S104T
2 | with no effect | D144G
3 | with no effect | V147M

Variants of: B2
Conditions: with sh3r2_human SH3RF2, Q8TEC5

Row | effect of a mutation on the interaction | Variant
4 | with no effect | A162V

Variants of: B3
Conditions: with ap2a_human TFAP2A

Row | effect of a mutation on the interaction | Variant
5 | with no effect | N142D

Variants of: B4
Conditions: with mtmr9_human MTMR9, Q96QG7

Row | effect of a mutation on the interaction | Variant
6 | with no effect | M522T

Variants of: B5
Conditions: with keap1_human KEAP1, Q14145
keap1_human KEAP1, Q14145, sequence (Q14145 whole entry): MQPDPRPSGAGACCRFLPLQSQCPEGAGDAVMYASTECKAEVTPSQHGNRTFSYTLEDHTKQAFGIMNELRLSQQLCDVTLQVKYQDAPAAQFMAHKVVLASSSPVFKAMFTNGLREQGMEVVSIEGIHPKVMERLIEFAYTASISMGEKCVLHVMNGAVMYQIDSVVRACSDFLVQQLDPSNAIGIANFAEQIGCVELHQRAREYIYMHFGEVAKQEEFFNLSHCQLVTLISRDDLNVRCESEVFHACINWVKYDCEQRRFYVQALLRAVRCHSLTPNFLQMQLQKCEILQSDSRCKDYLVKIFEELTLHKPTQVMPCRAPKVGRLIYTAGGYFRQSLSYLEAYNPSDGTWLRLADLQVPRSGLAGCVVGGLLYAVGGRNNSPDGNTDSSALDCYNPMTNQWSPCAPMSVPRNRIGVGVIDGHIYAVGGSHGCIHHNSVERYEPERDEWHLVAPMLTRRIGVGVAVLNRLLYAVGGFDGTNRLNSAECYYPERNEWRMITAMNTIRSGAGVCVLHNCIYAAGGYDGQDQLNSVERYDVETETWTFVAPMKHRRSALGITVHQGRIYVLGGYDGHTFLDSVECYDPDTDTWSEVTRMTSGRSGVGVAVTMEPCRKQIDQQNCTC

Row | effect of a mutation on the interaction | Variant
7 | with no effect | G278S
8 | with no effect | E144Q

Variants of: B6
Conditions: with goga2_human GOLGA2, Q08379

Row | effect of a mutation on the interaction | Variant
9 | with no effect | A129T
10 | with no effect | V393A

Variants of: B7
Conditions: with tle5_human TLE5, Q08117

Row | effect of a mutation on the interaction | Variant
11 | with no effect | R173H

Variants of: B8
Conditions: with creb3_human CREB3, O43889

Row | effect of a mutation on the interaction | Variant
12 | with no effect | F143S

From IntAct's records for PubMed 31515488
